# Tested on: Escherichia coli TOP10
# Test: shrunken log2 fold change of peptide-encoding DNA abundance (4.5 h post-induction vs induction); higher = less antimicrobial activity (less host growth inhibition)
# Settings: time post-induction: 4.5 h; library: site-saturation at positions 5, 18, 19, 20
# 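Also: peptides expressed intracellularly from a pBAD plasmid library in pooled LB shake-flask culture, induced with 0.3% L-arabinose, DNA abundance read by NGS, three biological replicates, DESeq2 with apeglm shrinkage.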
row,Sequence,shrunken log2 fold change
1,RRIRLRPPRLPRPRPRPHSHPRP,1.65
2,RRIRQRPPRLPRPRPRPAFFPRP,0.11
3,RRIRMRPPRLPRPRPRPAKMPRP,0.134
4,RRIRHRPPRLPRPRPRPTMMPRP,-0.503
5,RRIRKRPPRLPRPRPRPLEMPRP,0.659
6,RRIRHRPPRLPRPRPRPEDMPRP,-0.208
7,RRIRQRPPRLPRPRPRPMWEPRP,0.00271
8,RRIRQRPPRLPRPRPRPRHMPRP,-0.316
9,RRIRFRPPRLPRPRPRPLIIPRP,-0.575
10,RRIRQRPPRLPRPRPRPAWTPRP,-0.177
11,RRIRCRPPRLPRPRPRPGQLPRP,-0.00796
12,RRIRTRPPRLPRPRPRPCYYPRP,0.0075
13,RRIRRRPPRLPRPRPRPPAWPRP,0.919
14,RRIRNRPPRLPRPRPRPFLFPRP,-0.301
15,RRIRNRPPRLPRPRPRPVAVPRP,-0.0786
16,RRIRMRPPRLPRPRPRPWASPRP,0.0142
17,RRIRTRPPRLPRPRPRPHFAPRP,-0.227
18,RRIRTRPPRLPRPRPRPRKKPRP,0.173
19,RRIRNRPPRLPRPRPRPAVEPRP,-0.0887
20,RRIRVRPPRLPRPRPRPNYTPRP,-0.533
21,RRIRQRPPRLPRPRPRPLFEPRP,0.0725
22,RRIRFRPPRLPRPRPRPFNWPRP,-0.975

row,Sequence,shrunken log2 fold change
1,RRIRGRPPRLPRPRPRPHPFPRP,-0.0384
2,RRIRIRPPRLPRPRPRPWTIPRP,-0.0831
3,RRIRVRPPRLPRPRPRPSMLPRP,-0.395
4,RRIRVRPPRLPRPRPRPYLWPRP,-0.269
5,RRIRRRPPRLPRPRPRPQEFPRP,0.041
6,RRIRQRPPRLPRPRPRPHHMPRP,-0.256
7,RRIRMRPPRLPRPRPRPFSHPRP,0.0882
8,RRIRVRPPRLPRPRPRPENQPRP,-0.008
9,RRIRFRPPRLPRPRPRPVKLPRP,0.294
10,RRIRRRPPRLPRPRPRPRTAPRP,0.458
11,RRIRVRPPRLPRPRPRPPYYPRP,-0.363
12,RRIRCRPPRLPRPRPRPNHPPRP,-0.153
13,RRIRARPPRLPRPRPRPSDEPRP,0.324
14,RRIRPRPPRLPRPRPRPCMLPRP,-0.663
15,RRIRQRPPRLPRPRPRPPGHPRP,0.249
16,RRIRGRPPRLPRPRPRPVWMPRP,-0.117
17,RRIRNRPPRLPRPRPRPWPAPRP,0.0494
18,RRIRLRPPRLPRPRPRPPEEPRP,0.0505
19,RRIRCRPPRLPRPRPRPQICPRP,0.0827
20,RRIRVRPPRLPRPRPRPEYHPRP,-0.287
21,RRIRHRPPRLPRPRPRPCQYPRP,0.0163
22,RRIRIRPPRLPRPRPRPTDNPRP,-0.964

row,Sequence,shrunken log2 fold change
1,RRIRARPPRLPRPRPRPTSEPRP,0.751
2,RRIRDRPPRLPRPRPRPQQHPRP,0.0276
3,RRIRWRPPRLPRPRPRPCGHPRP,0.108
4,RRIRPRPPRLPRPRPRPWCCPRP,-0.0996
5,RRIRMRPPRLPRPRPRPMMCPRP,-0.0746
6,RRIRRRPPRLPRPRPRPSSEPRP,-0.322
7,RRIRGRPPRLPRPRPRPSWTPRP,0.219
8,RRIRYRPPRLPRPRPRPSGIPRP,-0.119
9,RRIRYRPPRLPRPRPRPGYRPRP,-0.46
10,RRIRGRPPRLPRPRPRPGDQPRP,0.777
11,RRIRARPPRLPRPRPRPIWFPRP,0.225
12,RRIRQRPPRLPRPRPRPGYDPRP,-0.0645
13,RRIRSRPPRLPRPRPRPNCPPRP,-0.374
14,RRIRTRPPRLPRPRPRPVEDPRP,0.0389
15,RRIRSRPPRLPRPRPRPYGHPRP,-0.00193
16,RRIRARPPRLPRPRPRPQRMPRP,0.0748
17,RRIRFRPPRLPRPRPRPMYDPRP,-0.244
18,RRIRGRPPRLPRPRPRPFVHPRP,0.111
19,RRIRHRPPRLPRPRPRPIKRPRP,-0.0154
20,RRIRTRPPRLPRPRPRPFEVPRP,-0.101
21,RRIRCRPPRLPRPRPRPQSLPRP,0.0939
22,RRIRYRPPRLPRPRPRPSPGPRP,-0.726

row,Sequence,shrunken log2 fold change
1,RRIRNRPPRLPRPRPRPFGMPRP,0.0298
2,RRIRVRPPRLPRPRPRPVNMPRP,-0.418
3,RRIRKRPPRLPRPRPRPYAQPRP,-0.00925
4,RRIRGRPPRLPRPRPRPQKDPRP,0.346
5,RRIRFRPPRLPRPRPRPWPVPRP,0.139
6,RRIRKRPPRLPRPRPRPASAPRP,0.59
7,RRIRTRPPRLPRPRPRPSEFPRP,-0.369
8,RRIRQRPPRLPRPRPRPRCQPRP,-0.0547
9,RRIRWRPPRLPRPRPRPSCVPRP,0.121
10,RRIRPRPPRLPRPRPRPLAAPRP,0.767
11,RRIRGRPPRLPRPRPRPCVKPRP,0.063
12,RRIRLRPPRLPRPRPRPRGPPRP,0.865
13,RRIRDRPPRLPRPRPRPQAQPRP,-0.0247
14,RRIRSRPPRLPRPRPRPWPLPRP,-0.293
15,RRIRGRPPRLPRPRPRPNDLPRP,0.338
16,RRIRSRPPRLPRPRPRPSLFPRP,0.0853
17,RRIRDRPPRLPRPRPRPMHIPRP,-0.11
18,RRIRIRPPRLPRPRPRPGEVPRP,0.0961
19,RRIRIRPPRLPRPRPRPHMQPRP,-0.169
20,RRIRSRPPRLPRPRPRPIDDPRP,-0.00277
21,RRIRRRPPRLPRPRPRPNSSPRP,0.105
22,RRIRCRPPRLPRPRPRPADQPRP,-0.0916

row,Sequence,shrunken log2 fold change
1,RRIRHRPPRLPRPRPRPSSGPRP,-0.427
2,RRIRFRPPRLPRPRPRPCFLPRP,-0.623
3,RRIRPRPPRLPRPRPRPECAPRP,0.698
4,RRIRTRPPRLPRPRPRPVMYPRP,0.0131
5,RRIRVRPPRLPRPRPRPRQTPRP,-0.0375
6,RRIRIRPPRLPRPRPRPRHKPRP,-0.704
7,RRIRPRPPRLPRPRPRPFETPRP,-0.117
8,RRIRCRPPRLPRPRPRPQNRPRP,-0.111
9,RRIRGRPPRLPRPRPRPIIDPRP,0.859
10,RRIRKRPPRLPRPRPRPCRRPRP,0.112
11,RRIRDRPPRLPRPRPRPLKGPRP,-0.0274
12,RRIRSRPPRLPRPRPRPITLPRP,-0.333
13,RRIRWRPPRLPRPRPRPIGQPRP,0.00299
14,RRIRGRPPRLPRPRPRPANCPRP,0.147
15,RRIRMRPPRLPRPRPRPRKAPRP,1.09
16,RRIRARPPRLPRPRPRPNMLPRP,-0.424
17,RRIRSRPPRLPRPRPRPCFYPRP,-0.39
18,RRIRMRPPRLPRPRPRPVTNPRP,0.0903
19,RRIRDRPPRLPRPRPRPEMPPRP,0.0164
20,RRIRYRPPRLPRPRPRPPAIPRP,-0.319
21,RRIRVRPPRLPRPRPRPHLWPRP,-0.0616

# From the supplement of paper PMC9112550, “Optimization of the antimicrobial peptide Bac7 by deep mutational scanning” (BMC Biology, 2022)
